Source: publication PMC2910045 (Nucleic Acids Research, 2010)
Like-named read-outs stand apart in the source and are kept apart here.

What was measured:
SEC [1] = target: the molecule itself; assay: SEC
SopB FL [2] = target: T1, SopB FL (Escherichia coli F plasmid, UniProt P62558 1-323); assay: X-ray crystallography
T1 sequence: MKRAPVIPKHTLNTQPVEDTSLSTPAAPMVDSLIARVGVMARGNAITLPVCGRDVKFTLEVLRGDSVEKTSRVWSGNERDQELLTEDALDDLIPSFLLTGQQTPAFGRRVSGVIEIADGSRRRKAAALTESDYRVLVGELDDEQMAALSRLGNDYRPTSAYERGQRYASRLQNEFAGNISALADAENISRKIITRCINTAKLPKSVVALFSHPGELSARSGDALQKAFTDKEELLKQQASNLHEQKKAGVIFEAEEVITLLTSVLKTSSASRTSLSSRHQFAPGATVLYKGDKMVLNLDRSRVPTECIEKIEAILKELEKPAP

SopB(155-323) = target: T2, SopB(155-323) (Escherichia coli F plasmid, UniProt P62558 155-323); assay: X-ray crystallography
T2 sequence: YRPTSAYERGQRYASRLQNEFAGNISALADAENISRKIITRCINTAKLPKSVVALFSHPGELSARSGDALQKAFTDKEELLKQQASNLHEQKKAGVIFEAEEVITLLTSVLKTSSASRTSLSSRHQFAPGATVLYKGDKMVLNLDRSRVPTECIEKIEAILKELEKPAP

SopB FL [3] = target: T1, SopB FL; assay: fluorescence polarization
SEC [4] = target: the molecule itself; assay: SEC; remark: listed apart in the source

With LSSRHQFAPGATVLYKGDKMVLNLDRSRVPTECIEKIEAILKELEKPAP (domain or fragment, F plasmid, UniProt P62558 275-323, looked up) [SopB(275–323)] the “stoichiometry N” value (SEC [1]) was 2.

B1: sopC 18mer 5-bromouracil (dsDNA)
DNA 1: CTGGGACCATGGTCCCAG
DNA 2: CTGGGACCATGGTCCCAG
modifications: 5-bromouracil substitutions (positions not given)
B1: binds (SopB FL [2]); binds (SopB(155-323)).

B2: sopC 43mer (FP) (dsDNA)
DNA 1: GGTCTGATTATTAGTCTGGGACCACGGTCCCACTCGTATCGTC
DNA 2: GACGATACGAGTGGGACCGTGGTCCCAGACTAATAATCAGACC
For B2, the Kd (SopB FL [3]) was 324 ± 43 nM.

B3: SopB(155–272) (domain or fragment, F plasmid, UniProt P62558 155-272, looked up)
chain: YRPTSAYERGQRYASRLQNEFAGNISALADAENISRKIITRCINTAKLPKSVVALFSHPGELSARSGDALQKAFTDKEELLKQQASNLHEQKKAGVIFEAEEVITLLTSVLKTSSASR
For B3, the “stoichiometry N” value (SEC [4]) was 2.

B4: sopC 18mer (FP) (dsDNA)
DNA 1: CTGGGACCATGGTCCCAG
DNA 2: CTGGGACCATGGTCCCAG
B4 gave a Kd (SopB FL [3]) of 223 ± 44 nM.
